To fix the notation:
B1: Glutamate dehydrogenase, P96110 (parent)
chain: MPEKSLYEMAVEQFNRAASLMDLESDLAEVLRRPKRVLIVEFPVRMDDGHVEVFTGYRVQHNVARGPAKGGIRYHPDVTLDEVKALAFWMTWKTAVMNLPFGGGKGGVRVDPKKLSRNELERLSRRFFSEIQVIIGPYNDIPAPDVNTNADVMAWYMDTYSMNVGHTVLGIVTGKPVELGGSKGREEATGRGVKVCAGLAMDVLGIDPKKATVAVQGFGNVGQFAALLISQELGSKVVAVSDSRGGIYNPEGFDVEELIRYKKEHGTVVTYPKGERITNEELLELDVDILVPAALEGAIHAGNAERIKAKAVVEGANGPTTPEADEILSRRGILVVPDILANAGGVTVSYFEWVQDLQSFFWDLDQVRNALEKMMKGAFNDVMKVKEKYNVDMRTAAYILAIDRVAYATKKRGIYP

The variants in this series derive from B1. The conditions noted are these: Thermotoga maritima (strain ATCC 43589 / DSM 3109 / JCM 10099 / NBRC 100826 / MSB8), pH 7, CD, sodium phosphate 20 mM, reversible: yes, structure 1B26, whole UniProt chain shown.

Broadly, the Tm is the temperature at which the thermal transition is half complete. Take E232A: for the setting “20 °C, GdnHCl”, the “ddG of mutation (higher = less stable)” value is 3.97 kJ/mol, the denaturant m value is 3 kcal/mol/M, the “denaturant midpoint (higher = more stable)” value (from here on “denaturant midpoint”) turned out to be 1.41 M and the unfolding free energy came out at 17.4 kJ/mol. Besides, under “20 °C, Urea”, the “ddG of mutation (higher = less stable)” value turned out to be 1.46 kJ/mol, the denaturant m value was found to be 1.6 kcal/mol/M, the “denaturant midpoint” value is 3.08 M and the unfolding free energy amounted to 18.8 kJ/mol. Moreover, the “ddG of mutation (higher = less stable)” value (69.5 °C, Thermal) is 0.711 kJ/mol. Also, where the note is “Thermal”, the Tm turned out to be 68.4 °C; the “change of melting temperature, mutant - wild type (higher = more stable)” value (from here on “change of melting temperature, mutant”) was -1.1 °C; the “unfolding enthalpy (van 't Hoff)” value stood at 172 kJ/mol.

With K194A E232A, for the setting “20 °C, GdnHCl”, the “ddG of mutation (higher = less stable)” value is -3.85 kJ/mol, the denaturant m value is 2.73 kcal/mol/M, the “denaturant midpoint” value worked out at 2.04 M and the unfolding free energy was 25.3 kJ/mol. Moreover, where the note is “20 °C, Urea”, the “ddG of mutation (higher = less stable)” value is -2.13 kJ/mol, the denaturant m value was determined as 1.42 kcal/mol/M, the “denaturant midpoint” value was 3.67 M and the unfolding free energy was 22.4 kJ/mol. Under “Thermal”, the Tm turned out to be 71.2 °C; the “change of melting temperature, mutant” value worked out at 1.7 °C; the “unfolding enthalpy (van 't Hoff)” value came to 220 kJ/mol.

Turning to R191A K194A, under “20 °C, Urea”, the “ddG of mutation (higher = less stable)” value was 0.669 kJ/mol, the denaturant m value is 1.33 kcal/mol/M, the “denaturant midpoint” value was 3.21 M and the unfolding free energy worked out at 19.6 kJ/mol. Also, under “Thermal”, the Tm was found to be 67.5 °C; the “change of melting temperature, mutant” value is -2 °C; the “unfolding enthalpy (van 't Hoff)” value was 223 kJ/mol.

Source of the values: FireProtDB (doi:10.1021/bi020461s).
